Test results as given in patent US20040106120A1, “Diagnosis and treatment of disease” (priority 2000, published 2004).

Experiments:
[1] = system: corneodesmosomes in stratum corneum tape strips; test: Treatment of tape strips from psoriatic skin with proteases, corneodesmosome density by electron microscopy; set-up: species or system human; settings: 22-50 nM recombinant SCCE or SCTE, 1-6 h at 37° C
Experimental: Tape strips are obtained according to a method described by Guerrin et al, 1998.
Small pieces of tape strips from control patients along with patients suffering from the skin conditions eczema, psoriasis, dermatitis and psoriasis are fixed for 2 h at 4° C. in Karnovsky fixative (2% paraformaldehyde, 2.5% gluteraldehyde in 0.1M phosphate buffer, pH 7.4). The samples are then washed three times in 0.1M phosphate buffer (pH7.4) containing 10% sucrose for 30 minutes each at 4° C.
Secondary fixation is carried out in aqueous 2% osmium tetroxide solution for 1 hour at room temperature. Dehydration is through a graded series of ethanol at room temperature (75% ethanol for 15 minutes; 95% ethanol for 15 minutes; 2 washes of 100% ethanol for 15 minutes; 100% ethanol dried over anhydrous copper sulphate for 15 minutes).
For resin embedding, samples are first placed in the intermediate solvent, propylene oxide, for two changes of 15 minutes duration. This is followed by infiltration in a 50:50 mixture of propylene oxide:araldite resin overnight at room temperature. […]
Ultrathin sections (70-90 nm) are cut on an ultramicrotome. […] Electron micrographs are recorded on Agfa Scientific 23D56 EM film.
Corneodesmosome density (area occupied by corneodesmosomes divided by total area of micrograph) is measured on electron micrographs of tape strips of each condition. […]

[2] = system: Desmoplakin; test: Cleavage of adhesion proteins from human epidermis by recombinant SCCE/SCTE (immunoblot); assay type: biochemical; settings: human epidermis protein extract incubated with active recombinant enzyme at 37 C
Experimental: (§1) Recombinant ProSCCE is produced and purified as described above. Recombinant ProSCCE is activated with agarose-bound trypsin, as described in Brasttsand & Egelrud, 1999.
(§2) Proteins are extracted from human epidermis in the presence of a detergent (TENP-40 buffer extract) and incubated with active SCCE for 37 C. for 4 h. The reactions are stopped by boiling for 2 mins after Laemmli's sample buffer is added. The proteins are immunoblotted with antibodies against corneodesmosomal proteins.

[3] = system: Desmoglein; test: as above; assay type: biochemical; settings: human epidermis protein extract incubated with active recombinant enzyme at 37 C
Experimental: as §1, §2

[4] = biological target: T1, Envoplakin (Homo sapiens, UniProt Q92817); test: as above; assay type: biochemical; settings: human epidermis protein extract incubated with active recombinant enzyme at 37 C
T1 construct: The native form of Envoplakin has a molecular weight of between 124-209 kDa; from tissue; host or cells: human epidermis (TENP-40 buffer extract)
T1 sequence (Q92817 whole entry): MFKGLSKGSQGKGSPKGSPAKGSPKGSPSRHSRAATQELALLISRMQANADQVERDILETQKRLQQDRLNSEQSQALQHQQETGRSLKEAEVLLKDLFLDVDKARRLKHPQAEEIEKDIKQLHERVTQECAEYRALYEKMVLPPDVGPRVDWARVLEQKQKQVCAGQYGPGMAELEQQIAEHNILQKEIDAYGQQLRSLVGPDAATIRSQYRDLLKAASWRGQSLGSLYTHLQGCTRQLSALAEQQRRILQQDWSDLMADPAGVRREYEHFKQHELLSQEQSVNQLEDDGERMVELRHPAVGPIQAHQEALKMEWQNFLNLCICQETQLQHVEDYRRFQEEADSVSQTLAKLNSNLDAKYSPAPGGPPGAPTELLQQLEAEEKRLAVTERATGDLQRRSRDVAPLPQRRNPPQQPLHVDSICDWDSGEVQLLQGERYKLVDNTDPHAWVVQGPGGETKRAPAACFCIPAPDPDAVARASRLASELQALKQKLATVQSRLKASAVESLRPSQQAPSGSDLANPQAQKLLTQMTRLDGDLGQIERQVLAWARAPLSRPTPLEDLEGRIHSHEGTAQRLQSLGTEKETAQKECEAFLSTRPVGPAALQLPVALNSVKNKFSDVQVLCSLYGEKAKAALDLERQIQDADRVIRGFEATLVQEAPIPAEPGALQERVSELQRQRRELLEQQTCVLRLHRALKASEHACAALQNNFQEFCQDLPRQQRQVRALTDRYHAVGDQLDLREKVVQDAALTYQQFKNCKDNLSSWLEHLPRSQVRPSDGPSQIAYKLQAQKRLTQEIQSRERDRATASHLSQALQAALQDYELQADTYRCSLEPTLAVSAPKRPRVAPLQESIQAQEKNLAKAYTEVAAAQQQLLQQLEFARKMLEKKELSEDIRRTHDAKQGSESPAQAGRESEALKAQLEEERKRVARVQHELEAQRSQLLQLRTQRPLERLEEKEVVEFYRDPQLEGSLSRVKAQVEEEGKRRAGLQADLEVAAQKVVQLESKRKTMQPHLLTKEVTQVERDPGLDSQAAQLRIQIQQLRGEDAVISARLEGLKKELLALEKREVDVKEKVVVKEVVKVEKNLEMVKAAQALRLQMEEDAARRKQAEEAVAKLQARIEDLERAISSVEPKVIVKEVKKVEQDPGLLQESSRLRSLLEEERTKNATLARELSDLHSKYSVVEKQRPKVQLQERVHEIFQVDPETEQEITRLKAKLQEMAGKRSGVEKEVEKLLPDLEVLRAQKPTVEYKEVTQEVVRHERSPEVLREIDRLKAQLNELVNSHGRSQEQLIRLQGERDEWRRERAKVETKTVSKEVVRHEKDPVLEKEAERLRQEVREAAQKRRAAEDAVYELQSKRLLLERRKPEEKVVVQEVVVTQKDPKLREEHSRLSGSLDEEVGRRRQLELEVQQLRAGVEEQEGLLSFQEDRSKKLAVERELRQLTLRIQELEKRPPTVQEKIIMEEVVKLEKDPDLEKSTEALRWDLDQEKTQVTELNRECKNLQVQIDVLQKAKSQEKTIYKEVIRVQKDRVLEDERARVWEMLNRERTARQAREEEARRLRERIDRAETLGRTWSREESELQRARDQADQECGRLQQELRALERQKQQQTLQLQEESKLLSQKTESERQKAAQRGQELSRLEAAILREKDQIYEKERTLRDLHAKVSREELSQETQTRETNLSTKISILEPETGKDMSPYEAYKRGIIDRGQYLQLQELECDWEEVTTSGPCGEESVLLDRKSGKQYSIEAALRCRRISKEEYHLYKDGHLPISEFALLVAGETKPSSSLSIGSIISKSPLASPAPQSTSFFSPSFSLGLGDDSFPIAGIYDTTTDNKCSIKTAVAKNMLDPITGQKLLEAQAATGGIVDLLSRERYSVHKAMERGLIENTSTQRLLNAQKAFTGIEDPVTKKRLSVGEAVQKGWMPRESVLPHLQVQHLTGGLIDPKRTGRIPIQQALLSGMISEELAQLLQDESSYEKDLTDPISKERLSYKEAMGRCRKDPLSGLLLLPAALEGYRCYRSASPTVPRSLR
Experimental: as §1, §2

[5] = system: Desmocollin; test: as above; assay type: biochemical; settings: human epidermis protein extract incubated with active recombinant enzyme at 37 C
Experimental: as §1, §2

[6] = biological target: T2, Plakoglobin (Homo sapiens, UniProt P14923); test: as above; assay type: biochemical; settings: human epidermis protein extract incubated with active recombinant enzyme at 37 C
T2 construct: The native form of plakoglobin has a molecular weight of between 85 kDa and 75 kDa; from tissue; host or cells: human epidermis (TENP-40 buffer extract)
T2 sequence (P14923 1-745): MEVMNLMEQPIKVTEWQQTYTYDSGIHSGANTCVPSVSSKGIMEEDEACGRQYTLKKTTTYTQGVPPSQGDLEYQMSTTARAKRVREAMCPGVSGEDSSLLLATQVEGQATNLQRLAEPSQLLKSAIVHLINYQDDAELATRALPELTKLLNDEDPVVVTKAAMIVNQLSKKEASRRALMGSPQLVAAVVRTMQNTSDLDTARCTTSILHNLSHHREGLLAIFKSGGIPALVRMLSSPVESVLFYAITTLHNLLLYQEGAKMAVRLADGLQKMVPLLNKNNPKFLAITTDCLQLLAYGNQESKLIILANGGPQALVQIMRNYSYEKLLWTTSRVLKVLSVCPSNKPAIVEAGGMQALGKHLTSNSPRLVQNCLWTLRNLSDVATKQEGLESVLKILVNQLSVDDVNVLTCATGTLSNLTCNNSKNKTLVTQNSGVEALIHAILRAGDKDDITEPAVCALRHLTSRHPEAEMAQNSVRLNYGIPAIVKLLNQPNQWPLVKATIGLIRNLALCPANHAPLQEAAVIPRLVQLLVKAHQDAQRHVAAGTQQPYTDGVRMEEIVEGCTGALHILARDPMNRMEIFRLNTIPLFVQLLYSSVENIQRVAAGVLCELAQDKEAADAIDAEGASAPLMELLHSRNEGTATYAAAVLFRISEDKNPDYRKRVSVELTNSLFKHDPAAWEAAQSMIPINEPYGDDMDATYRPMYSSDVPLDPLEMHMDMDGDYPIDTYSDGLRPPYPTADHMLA
Experimental: as §1, §2

[7] = biological target: T3, Corneodesmosin (Homo sapiens, UniProt Q15517); test: as above; assay type: biochemical; settings: human epidermis protein extract incubated with active recombinant enzyme at 37 C
T3 construct: The native form of corneodesmosin has a molecular weight of between 50 and 56 kDa; from tissue; host or cells: human epidermis (TENP-40 buffer extract)
T3 sequence (Q15517 33-529): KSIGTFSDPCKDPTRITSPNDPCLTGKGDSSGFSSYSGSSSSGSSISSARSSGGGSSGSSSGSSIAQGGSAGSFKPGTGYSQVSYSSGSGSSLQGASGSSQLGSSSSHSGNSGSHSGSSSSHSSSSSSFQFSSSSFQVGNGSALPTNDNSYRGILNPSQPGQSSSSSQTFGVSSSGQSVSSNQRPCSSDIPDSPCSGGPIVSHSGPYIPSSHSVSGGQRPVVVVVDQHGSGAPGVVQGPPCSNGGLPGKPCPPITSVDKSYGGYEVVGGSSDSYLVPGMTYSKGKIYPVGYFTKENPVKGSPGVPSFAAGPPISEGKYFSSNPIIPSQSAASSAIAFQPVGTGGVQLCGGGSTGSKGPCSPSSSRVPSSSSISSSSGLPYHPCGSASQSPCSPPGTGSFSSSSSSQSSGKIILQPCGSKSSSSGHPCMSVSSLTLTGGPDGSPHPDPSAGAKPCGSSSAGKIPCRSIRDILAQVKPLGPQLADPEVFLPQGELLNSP
Experimental: as §1, §2

[8] = system: cultured skin equivalent; test: Treatment of skin equivalents with other protease inhibitors for 24 h, light and electron microscopy; assay type: cell-based; settings: SLPI 500 nM, cultured for 24 h
Experimental: Skin equivalent (+ and − inhibitor) is cultured with the inhibitor for 24 h. Skin equivalent are taken the preparation of histological sections. Sections are then analysed by light and electron microscopy.
SLPI (500 nM) is added to cultured skin equivalent, and cultured for 24 h. Skin equivalent (+ and − SLPI) are taken the preparation of sections. Sections are then analysed in light and electron microscopy.
SCCE antibody is added is added to cultured skin equivalent, and cultured for 24 h. Skin equivalent (+ and − SCCE antibodies) are taken the preparation of sections. Sections are then analysed in light and electron microscopy.
SCTE antibody is added is added to cultured skin equivalent, and cultured for 24 h. Skin equivalent (+ and − SCTE antibodies) are taken the preparation of sections. Sections are then analysed in light and electron microscopy.

[9] = Topical protease inhibitor in emollient cream on volunteer's arm skin for 14 days, biopsy histology; assay type: in vivo; settings: human volunteer, emollient cream applied daily to arm for 14 days under occlusion
From the text: SPLI protease inhibitor is extracted from normal human skin of a volunteer. Alternatively, a nucleic acid sequence encoding the protease inhibitor from the individual is cloned using PCR, or library screening. The individual's protease inhibitor sequence is cloned into an expression vector, and recombinant protease inhibitor expressed and purified using conventional and known means.
The inhibitor is then formulated in an emollient cream base. Two fingertip units of this formulation are applied to an area of the volunteer's skin on the arm measuring 2×2 cm. The area is covered with a plastic capsule which is secured in place with a cotton bandage. The cream is reapplied to the same area each day for 14 consecutive days.
On day 14 the cup is removed and a 1×0.5 cm ellipse skin biopsy is taken from the treated area and a similar biopsy taken from an untreated area on the opposite arm.

B1: SCCE: recombinant Stratum Corneum Chymotryptic Enzyme, activated with agarose-bound trypsin (protein, UniProt P49862 30-253, looked up)
Kallikrein-7: IIDGAPCARGSHPWQVALLSGNQLHCGGVLVNERWVLTAAHCKMNEYTVHLGSDTLGDRRAQRIKASKSFRHPGYSTQTHVNDLMLVKLNSQARLSSMVKKVRLPSRCEPPGTTCTVSGWGTTTSPDVTFPSDLMCVDVKLISPQDCTKVYKDLLENSMLCAGIPDSKKNACNGDSGGPLVCRGTLQGLVSWGTFPCGQPNDPGVYTQVCKFTKWINDTMKKHR
modifications: activated with trypsin
- number of corneodesmosomes in treated versus untreated stratum corneum [1]: decrease significantly
- proteolysis of Desmoplakin [2]: proteolysed
- proteolysis of Desmoglein [3]: proteolysed
- proteolysis of Envoplakin [4]: proteolysed
- proteolysis of Desmocollin [5]: proteolysed
- proteolysis of Plakoglobin [6]: proteolysed
- proteolysis of Corneodesmosin [7]: proteolysed

B2: SLPI: Secretory Leukoprotease Inhibitor protein added to cultured skin equivalent (protein, UniProt P03973 26-132, looked up)
Antileukoproteinase: SGKSFKAGVCPPKKSAQCLRYKKPECQSDWQCPGKKRCCPDTCGIKCLDPVDTPNPTRRKPGKCPVTYGQCLMLNPPNFCEMDGQCKRDLKCCMGMCGKSCVSPVKA
- effect on stratum corneum thickness and skin barrier of skin equivalent [8]: increase the thickness of the stratum corneum

B3: SPLI protease inhibitor: SLPI extracted from normal human skin or recombinant, formulated in an emollient cream base (protein, UniProt P03973 26-132, looked up)
Antileukoproteinase: SGKSFKAGVCPPKKSAQCLRYKKPECQSDWQCPGKKRCCPDTCGIKCLDPVDTPNPTRRKPGKCPVTYGQCLMLNPPNFCEMDGQCKRDLKCCMGMCGKSCVSPVKA
modifications: emollient cream formulation
notes: SLPI extracted from normal human skin or recombinant, formulated in an emollient cream base
- histology of stratum corneum, treated biopsy compared with control [9]: thickening of the stratum corneum with loosely adherent scales
- histology of viable epidermis, treated biopsy compared with control [9]: parakeratosis and thickening
